Experimental data as given in EP2649983A1 (Lipotec, S.A., dated 2013).

Target: SNARE complex in cells of a human neuroblastoma cell line (human, UniProt P60880 1-206)
Experiment: cell-based or functional assay

Chain of SNARE complex in cells of a human neuroblastoma cell line (P60880 whole entry, one chain of several): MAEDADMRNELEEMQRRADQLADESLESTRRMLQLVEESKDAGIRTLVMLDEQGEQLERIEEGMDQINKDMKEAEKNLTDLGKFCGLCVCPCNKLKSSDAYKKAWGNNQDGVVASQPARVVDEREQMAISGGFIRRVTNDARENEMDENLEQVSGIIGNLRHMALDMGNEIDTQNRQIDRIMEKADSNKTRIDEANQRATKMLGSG

Binder: Ac-EDLKRWM-NH2 [Ac-SEQ ID NO:14-NH2]
- % RELEASED NO… (Average), dose 10 µM: 85%
- % RELEASED NO… (Average), dose 100 µM: 86%
- % RELEASED NO… (Average), dose 1000 µM: 45.8%

Binder: Ac-EHLKQWM-NH2 [Ac-SEQ ID NO:1-NH2]
- % RELEASED NO… (Average), dose 1 µM: 96.1%
- % RELEASED NO… (Average), dose 10 µM: 93.1%
- % RELEASED NO… (Average), dose 100 µM: 79.6%
- % RELEASED NO… (Average), dose 500 µM: 49.1%
- % RELEASED NO… (Average), dose 1000 µM: 42.5%

Binder: Ac-DHFQQRM-NH2 [Ac-SEQ ID NO:24-NH2]
- % RELEASED NO… (Average), dose 1 µM: 90.6%
- % RELEASED NO… (Average), dose 10 µM: 97.1%
- % RELEASED NO… (Average), dose 100 µM: 89%
- % RELEASED NO… (Average), dose 500 µM: 78.1%
- % RELEASED NO… (Average), dose 1000 µM: 67.9%

Binder: Ac-DHFLDWM-NH2 [Ac-SEQ ID NO:25-NH2]
- % RELEASED NO… (Average), dose 1 µM: 99.6%
- % RELEASED NO… (Average), dose 10 µM: 94.5%
- % RELEASED NO… (Average), dose 100 µM: 74.8%
- % RELEASED NO… (Average), dose 500 µM: 48.1%
- % RELEASED NO… (Average), dose 1000 µM: 41%
